For two molecules, ECL signal results are on record in patent US20110318339A1.

The target of assay [1] is rHuman IGF-1 sR, (IGF-1 sR), CF (Cat# 391-GR, R&D Systems) (human) (UniProt P08069). Description: Multispot ECL; Fab 120 nM; blank 363.
Assay [2] concerns the target rHuman EGF R/Fc Chimera, CF (Cat# 344-ER, R&D Systems) (human) (UniProt P00533). Description: Multispot ECL; Fab 120 nM; blank 363.
For assay [3], the target named is rHuman ErbB2/Fc Chimera, CF (Cat# 1129-ER, R&D Systems) (human) (UniProt P04626). Description: Multispot ECL; Fab 120 nM; blank 363.
Assay [4] has as its target rHuman HGF R/c-MET/Fc Chimera, CF (Cat# 358-MT/CF, R&D Systems) (human) (UniProt P08581). Description: Multispot ECL; Fab 120 nM; blank 363.
The target in assay [5] is rHuman IGF-1 sR, (IGF-1 sR), CF (Cat# 391-GR, R&D Systems) (human) (UniProt P08069). Description: Multispot ECL; Fab 60 nM; blank 237.
The target in assay [6] is rHuman EGF R/Fc Chimera, CF (Cat# 344-ER, R&D Systems) (human) (UniProt P00533). Description: Multispot ECL; Fab 60 nM; blank 237.
Assay [7] has as its target rHuman ErbB2/Fc Chimera, CF (Cat# 1129-ER, R&D Systems) (human) (UniProt P04626). Description: Multispot ECL; Fab 60 nM; blank 237.
The target of assay [8] is rHuman HGF R/c-MET/Fc Chimera, CF (Cat# 358-MT/CF, R&D Systems) (human) (UniProt P08581). Description: Multispot ECL; Fab 60 nM; blank 237.
Assay [9] deals with rHuman IGF-1 sR, (IGF-1 sR), CF (Cat# 391-GR, R&D Systems) (human) (UniProt P08069). Description: Multispot ECL; Fab 7.5 nM; blank 217.
Assay [10] deals with rHuman EGF R/Fc Chimera, CF (Cat# 344-ER, R&D Systems) (human) (UniProt P00533). Description: Multispot ECL; Fab 7.5 nM; blank 217.
The target of assay [11] is rHuman ErbB2/Fc Chimera, CF (Cat# 1129-ER, R&D Systems) (human) (UniProt P04626). Description: Multispot ECL; Fab 7.5 nM; blank 217.
In assay [12] the target is rHuman HGF R/c-MET/Fc Chimera, CF (Cat# 358-MT/CF, R&D Systems) (human) (UniProt P08581). Description: Multispot ECL; Fab 7.5 nM; blank 217.
Assay [13] addresses rHuman IGF-1 sR, (IGF-1 sR), CF (Cat# 391-GR, R&D Systems) (human) (UniProt P08069). Description: Multispot ECL; Fab 30 nM; blank 213.
Assay [14] has as its target rHuman EGF R/Fc Chimera, CF (Cat# 344-ER, R&D Systems) (human) (UniProt P00533). Description: Multispot ECL; Fab 30 nM; blank 213.
For assay [15], the target named is rHuman ErbB2/Fc Chimera, CF (Cat# 1129-ER, R&D Systems) (human) (UniProt P04626). Description: Multispot ECL; Fab 30 nM; blank 213.
Assay [16] deals with rHuman HGF R/c-MET/Fc Chimera, CF (Cat# 358-MT/CF, R&D Systems) (human) (UniProt P08581). Description: Multispot ECL; Fab 30 nM; blank 213.
The target of assay [17] is rHuman IGF-1 sR, (IGF-1 sR), CF (Cat# 391-GR, R&D Systems) (human) (UniProt P08069). Description: Multispot ECL; Fab 15 nM; blank 261.
Assay [18] addresses rHuman EGF R/Fc Chimera, CF (Cat# 344-ER, R&D Systems) (human) (UniProt P00533). Description: Multispot ECL; Fab 15 nM; blank 261.
The target in assay [19] is rHuman ErbB2/Fc Chimera, CF (Cat# 1129-ER, R&D Systems) (human) (UniProt P04626). Description: Multispot ECL; Fab 15 nM; blank 261.
The target in assay [20] is rHuman HGF R/c-MET/Fc Chimera, CF (Cat# 358-MT/CF, R&D Systems) (human) (UniProt P08581). Description: Multispot ECL; Fab 15 nM; blank 261.
Assay [21] concerns the target rHuman IGF-1 sR, (IGF-1 sR), CF (Cat# 391-GR, R&D Systems) (human) (UniProt P08069). Description: Multispot ECL; Fab 480 nM; blank 362.
Assay [22] has as its target rHuman EGF R/Fc Chimera, CF (Cat# 344-ER, R&D Systems) (human) (UniProt P00533). Description: Multispot ECL; Fab 480 nM; blank 362.
In assay [23] the target is rHuman ErbB2/Fc Chimera, CF (Cat# 1129-ER, R&D Systems) (human) (UniProt P04626). Description: Multispot ECL; Fab 480 nM; blank 362.
Assay [24] deals with rHuman HGF R/c-MET/Fc Chimera, CF (Cat# 358-MT/CF, R&D Systems) (human) (UniProt P08581). Description: Multispot ECL; Fab 480 nM; blank 362.
Assay [25] deals with rHuman IGF-1 sR, (IGF-1 sR), CF (Cat# 391-GR, R&D Systems) (human) (UniProt P08069). Description: Multispot ECL; Fab 3.8 nM; blank 198.
Assay [26] addresses rHuman EGF R/Fc Chimera, CF (Cat# 344-ER, R&D Systems) (human) (UniProt P00533). Description: Multispot ECL; Fab 3.8 nM; blank 198.
In assay [27] the target is rHuman ErbB2/Fc Chimera, CF (Cat# 1129-ER, R&D Systems) (human) (UniProt P04626). Description: Multispot ECL; Fab 3.8 nM; blank 198.
The target in assay [28] is rHuman HGF R/c-MET/Fc Chimera, CF (Cat# 358-MT/CF, R&D Systems) (human) (UniProt P08581). Description: Multispot ECL; Fab 3.8 nM; blank 198.
For assay [29], the target named is rHuman IGF-1 sR, (IGF-1 sR), CF (Cat# 391-GR, R&D Systems) (human) (UniProt P08069). Description: Multispot ECL; Fab 240 nM; blank 316.
The target of assay [30] is rHuman EGF R/Fc Chimera, CF (Cat# 344-ER, R&D Systems) (human) (UniProt P00533). Description: Multispot ECL; Fab 240 nM; blank 316.
For assay [31], the target named is rHuman ErbB2/Fc Chimera, CF (Cat# 1129-ER, R&D Systems) (human) (UniProt P04626). Description: Multispot ECL; Fab 240 nM; blank 316.
Assay [32] has as its target rHuman HGF R/c-MET/Fc Chimera, CF (Cat# 358-MT/CF, R&D Systems) (human) (UniProt P08581). Description: Multispot ECL; Fab 240 nM; blank 316.
Assay [33] has as its target rHuman IGF-1 sR, (IGF-1 sR), CF (Cat# 391-GR, R&D Systems) (human) (UniProt P08069). Description: Multispot ECL; Fab 6 nM; blank 191.
Assay [34] addresses rHuman EGF R/Fc Chimera, CF (Cat# 344-ER, R&D Systems) (human) (UniProt P00533). Description: Multispot ECL; Fab 6 nM; blank 191.
Assay [35] addresses rHuman ErbB2/Fc Chimera, CF (Cat# 1129-ER, R&D Systems) (human) (UniProt P04626). Description: Multispot ECL; Fab 6 nM; blank 191.
For assay [36], the target named is rHuman HGF R/c-MET/Fc Chimera, CF (Cat# 358-MT/CF, R&D Systems) (human) (UniProt P08581). Description: Multispot ECL; Fab 6 nM; blank 191.
Assay [37] concerns the target rHuman IGF-1 sR, (IGF-1 sR), CF (Cat# 391-GR, R&D Systems) (human) (UniProt P08069). Description: Multispot ECL; Fab 154 nM; blank 447.
The target of assay [38] is rHuman EGF R/Fc Chimera, CF (Cat# 344-ER, R&D Systems) (human) (UniProt P00533). Description: Multispot ECL; Fab 154 nM; blank 447.
The target of assay [39] is rHuman ErbB2/Fc Chimera, CF (Cat# 1129-ER, R&D Systems) (human) (UniProt P04626). Description: Multispot ECL; Fab 154 nM; blank 447.
Assay [40] addresses rHuman HGF R/c-MET/Fc Chimera, CF (Cat# 358-MT/CF, R&D Systems) (human) (UniProt P08581). Description: Multispot ECL; Fab 154 nM; blank 447.
Assay [41] concerns the target rHuman IGF-1 sR, (IGF-1 sR), CF (Cat# 391-GR, R&D Systems) (human) (UniProt P08069). Description: Multispot ECL; Fab 17 nM; blank 143.
The target of assay [42] is rHuman EGF R/Fc Chimera, CF (Cat# 344-ER, R&D Systems) (human) (UniProt P00533). Description: Multispot ECL; Fab 17 nM; blank 143.
Assay [43] has as its target rHuman ErbB2/Fc Chimera, CF (Cat# 1129-ER, R&D Systems) (human) (UniProt P04626). Description: Multispot ECL; Fab 17 nM; blank 143.
The target in assay [44] is rHuman HGF R/c-MET/Fc Chimera, CF (Cat# 358-MT/CF, R&D Systems) (human) (UniProt P08581). Description: Multispot ECL; Fab 17 nM; blank 143.
Assay [45] deals with rHuman IGF-1 sR, (IGF-1 sR), CF (Cat# 391-GR, R&D Systems) (human) (UniProt P08069). Description: Multispot ECL; Fab 51 nM; blank 335.
The target in assay [46] is rHuman EGF R/Fc Chimera, CF (Cat# 344-ER, R&D Systems) (human) (UniProt P00533). Description: Multispot ECL; Fab 51 nM; blank 335.
Assay [47] deals with rHuman ErbB2/Fc Chimera, CF (Cat# 1129-ER, R&D Systems) (human) (UniProt P04626). Description: Multispot ECL; Fab 51 nM; blank 335.
The target in assay [48] is rHuman HGF R/c-MET/Fc Chimera, CF (Cat# 358-MT/CF, R&D Systems) (human) (UniProt P08581). Description: Multispot ECL; Fab 51 nM; blank 335.

B1: Fab VH6-1_IGHD3-3*01_IGHJ4*01 & V4-3_IGLJ4*01 (Fab, V domains shown)
VH: QVQLQQSGPGLVKPSQTLSLTCAISGDSVSSNSAAWNWIRQSPSRGLEWLGRTYYRSKWYNDYAVSVKSRITINPDTSKNQFSLQLNSVTPEDTAVYYCAREYYDFWSGYYTDYFDYWGQGTLVTVSS
VL: QPVLTQPTSLSASPGASARLTCTLRSGINLGSYRIFWYQQKPESPPRYLLSYYSDSSKHQGSGVPSRFSGSKDASSNAGILVISGLQSEDEADYYCMIWHSSASFVFGGGTQLIIL
As to B1, the ECL signal was found to be 813 in assay [1]; 658 in assay [2]; 822 in assay [3]; 785 in [4]; 654 in assay [5]; 679 in assay [6]. Further, the ECL signal in assay [7] was 777; in assay [8], 623; in [9], 642; in assay [10], 582; in [11] it was 695; in assay [12], 558. The ECL signal in assay [13] stood at 697; in assay [14] it was 585; in [15], 726; in assay [16], 640; in [17] it was 705; in [18] it was 584. Also, the ECL signal in assay [19] came out at 713; in assay [20] it was 694; in assay [21], 741; in [22], 877; in [23] it was 965; in assay [24], 951. The ECL signal in assay [25] was 463; in [26], 511; in [27], 714; in assay [28], 519; in assay [29], 625; in [30], 690. Besides, the results for the ECL signal in assay [31] and in assay [32] were 833 and 834, respectively.

B2: Fab VH5-51_IGHD5-18*01>3_IGHJ4*01 & V3-4_IGLJ1*01 (Fab, V domains shown)
VH: EVQLVQSGAEVKKPGESLKISCKGSGYSFTSYWIGWVRQMPGKGLEWMGIIYPGDSDTRYSPSFQGQVTISADKSISTAYLQWSSLKASDTAMYYCARRGYSYGYDYFDYWGQGTLVTVSS
VL: QTVVTQEPSFSVSPGGTVTLTCGLSSGSVSTSYYPSWYQQTPGQAPRTLIYSTNTRSSGVPDRFSGSILGNKAALTITGAQADDESDYYCVLYMGSGISYVFGTGTKVTVL
For B2, the ECL signal in [33] was 854; in [34] it was 742; in [35], 873; in assay [36], 831; in assay [37], 1400; in assay [38], 1400. In addition, the ECL signal came to 1590 in [39]; 1520 in [40]; 872 in assay [41]; 805 in [42]; 1030 in assay [43]; 914 in assay [44]. For the same molecule, the ECL signal in [45] came out at 1050; in assay [46], 816; in assay [47], 1250; in assay [48] it was 1040.
